Assay results: US20230332136A1, “IL-17 RECEPTOR MODULATOR SCREENING SYSTEM” (New York University, priority 2022, published 2023)

Legend:
IL-17RA/RC = target: T1, IL-17RA/RC (Mus musculus, UniProt Q60943+Q8K4C2); assay: mADIR-17 dmCherry reporter assay in MEF cells (flow cytometry); assay type: cell-based
T1 construct: Full length IL-17RC in the purified ADIR system; expressed in transfected cells; host or cells: mouse embryonic fibroblasts (MEF), retrovirally transduced
T1 sequence (Q60943 32-864): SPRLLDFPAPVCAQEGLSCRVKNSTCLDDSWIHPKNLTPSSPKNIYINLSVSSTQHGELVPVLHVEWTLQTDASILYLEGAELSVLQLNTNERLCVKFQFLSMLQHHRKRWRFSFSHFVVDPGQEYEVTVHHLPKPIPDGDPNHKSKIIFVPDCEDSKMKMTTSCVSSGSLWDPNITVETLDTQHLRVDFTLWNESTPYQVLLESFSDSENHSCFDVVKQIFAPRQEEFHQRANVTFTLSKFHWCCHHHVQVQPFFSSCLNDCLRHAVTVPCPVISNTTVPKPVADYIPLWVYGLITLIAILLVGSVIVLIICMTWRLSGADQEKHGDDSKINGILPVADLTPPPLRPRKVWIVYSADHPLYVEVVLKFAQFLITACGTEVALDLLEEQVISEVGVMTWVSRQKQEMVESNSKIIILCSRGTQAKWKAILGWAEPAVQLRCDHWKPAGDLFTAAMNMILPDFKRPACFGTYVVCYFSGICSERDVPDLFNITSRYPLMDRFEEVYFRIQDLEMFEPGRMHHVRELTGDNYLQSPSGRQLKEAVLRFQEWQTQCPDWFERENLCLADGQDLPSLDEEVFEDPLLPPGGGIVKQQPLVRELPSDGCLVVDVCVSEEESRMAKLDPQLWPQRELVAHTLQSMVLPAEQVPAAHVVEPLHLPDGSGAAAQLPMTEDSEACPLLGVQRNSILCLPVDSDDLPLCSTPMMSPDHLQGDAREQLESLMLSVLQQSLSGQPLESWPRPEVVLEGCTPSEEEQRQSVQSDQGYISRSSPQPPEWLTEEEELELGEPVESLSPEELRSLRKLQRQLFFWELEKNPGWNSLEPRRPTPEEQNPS
T1 sequence (Q8K4C2 22-698): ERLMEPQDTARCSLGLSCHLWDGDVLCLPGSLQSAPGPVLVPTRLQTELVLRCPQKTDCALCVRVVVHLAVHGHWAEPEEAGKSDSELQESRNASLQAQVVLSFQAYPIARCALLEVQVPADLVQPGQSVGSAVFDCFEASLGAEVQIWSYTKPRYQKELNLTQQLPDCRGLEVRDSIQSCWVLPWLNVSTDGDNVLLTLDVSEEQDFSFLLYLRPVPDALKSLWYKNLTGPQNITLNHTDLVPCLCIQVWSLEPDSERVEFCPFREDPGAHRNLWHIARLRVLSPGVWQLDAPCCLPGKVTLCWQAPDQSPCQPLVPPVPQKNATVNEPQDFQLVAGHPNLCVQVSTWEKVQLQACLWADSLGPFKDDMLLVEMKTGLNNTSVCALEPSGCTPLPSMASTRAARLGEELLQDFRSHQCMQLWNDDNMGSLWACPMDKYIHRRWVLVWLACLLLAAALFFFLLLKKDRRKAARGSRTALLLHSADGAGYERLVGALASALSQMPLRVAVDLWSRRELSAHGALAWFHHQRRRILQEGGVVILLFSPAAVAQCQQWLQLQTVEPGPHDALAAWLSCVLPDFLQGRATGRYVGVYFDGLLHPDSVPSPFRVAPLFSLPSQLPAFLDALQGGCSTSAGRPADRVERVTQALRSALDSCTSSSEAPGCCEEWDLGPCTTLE
Description: Unless defined otherwise herein, all technical and scientific terms used in this disclosure have the same meaning as commonly understood by one of ordinary skill in the art to which this disclosure pertains. Where the term “ADIR” is used herein it means ACT1-Dependent IL-17 Receptor Modulator Screening System. The preface “m” means mouse and the prefix “h” means human.
Mouse constructs were produced as depicted in the panels of FIG. 1. Human sequence constructs were produced as in the panels of FIG. 9, where mouse cDNA constructs were replaced by human cDNA constructed. In the mouse ADIR system exogenous IL-17RC was not provided because the cell line (mouse embryonic fibroblasts) have endogenous IL-17RC expression. In the hADIR system, human components used for the hADIR system (hRA, hRC, hRB, hAct1) were expressed from added polynucleotides.
The data reflected in the Figures utilized a reporter system specifically designed for Act1-dependent IL-17 signaling pathways. The reporter system is based at least in part on the principle that the engagement of active cognate ligands, and the interaction between Act1 and IL-17 receptors is required for active signaling of IL-17A/F, IL-17E, and IL-17C. The protein-protein-interaction (PPI) based reporter system is highly specific and easily scalable. The disclosure is illustrated using mouse and human systems. For the data presented in the Figures, the system comprised a three-part reporter system specifically designed for detecting IL-17A/F, IL-17E, and IL-17C signaling. The PPI-based reporter system provides for detecting active signaling, and is specific for each of the IL-17 family cytokines. The system that is responsive to binding of IL-17A and IL-17F comprises (1) an Act1-tobacco etch virus (TEV) protease fusion protein, which upon active IL-17A/F binding to the IL-17RA/RC receptor heterodimer on a target cell, will be recruited to (2) IL-17RC fused with a TEV cleavage site(TSC)-tTA (a transcriptional transactivator that binds to tetracycline responsive element, or TRE), releasing tTA, which will subsequently translocate into the nucleus where a (3) TRE-dmCherry-PEST (destabilized mCherry) element is integrated into the genome. tTA binds to the TRE to drive dmCherry expression in the target modified cell. The three described components, Act1-TEV, IL-17RC-TSC-tTA, and TRE-dmCherry-PEST, along with IL-17RA, can be delivered by retro or lenti-viral vectors or guide-RNA directed nucleases, or recombinase systems, or by homologous recombination, into mouse embryonic fibroblasts (MEF) or other mammalian cell lines, establishing stable reporter cell lines. Using the same principle, IL-17RC-TSC-tTA can be replaced with IL-17RB-TSC-tTA in the described system to provide for IL-17E (IL-25) binding, and with IL-17RE-TSC-tTA for detecting IL-17C binding. A parallel approach involves attaching the fusion protein of —TSC-tTA to the RA component and three independent system cell lines generated by supplementing RC/RB/RE, Act1-TEV, and TRE-dmCherry reporter components. Each of the retroviral vectors can contain a unique selection or fluorescent marker to enable efficient generation and maintenance of stable cell lines (for example, Puromycin resistance for m/hIL-17RC(RB, RE)-TSC-tTA; EBFP for m/hAct1-TEV; Neomycin resistance and mVenus fluorescence for TRE-dmCherry-PEST, and Thy1.1 for m/hRA).

IL-6 = assay: IL-17A titration for activation of endogenous target gene IL-6 in MEF cells; assay type: cell-based, mouse; conditions: IL-17A titration (FIG. 3B)
Description: FIGS. 3A and 3B provide construct schematics (designed for mouse genes), and cartoon depictions of the proteins encoded by the constructs, and a graph illustrating IL-17A titrations for activation of an endogenous target gene (IL-6) in MEF cells. […] FIG. 3A: schematics of functional units of the retroviral transfer plasmid constructs used to build the mouse ADIR system.

B1: IL-17A: mouse IL-17 family cytokine, cognate ligand of IL-17RA/RC, used as agonist in the mADIR-17 system (protein, UniProt Q62386 26-158, looked up)
Interleukin-17A: AAIIPQSSACPNTEAKDFLQNVKVNLKVFNSLGAKVSSRRPSDYLNRSTSPWTLHRNEDPDRYPSVIWEAQCRHQRCVNAEGKLDHHMNSVLIQQEILVLKREPESCPFTFRVEKMLVGVGCTCVASIVRQAA
dmCherry signal produced (IL-17RA/RC; 0.4 ng/ml, after 24 hrs (FIG. 7)): 5.75%
dmCherry signal produced (IL-17RA/RC; 2 ng/ml, after 24 hrs (FIG. 7)): 24.6%
dmCherry signal produced (IL-17RA/RC; 10 ng/ml, after 24 hrs (FIG. 7)): 43.6%
cells turning on dmCherry signal (IL-17RA/RC; 50 ng/ml, 24 hr after plating (FIG. 5B)): 27.2%
dmCherry signal produced (IL-17RA/RC; 50 ng/ml, after 24 hrs (FIG. 7)): 55.1%
dmCherry signal produced (IL-17RA/RC; 100 ng/ml, after 24 hrs (FIG. 6I)): 25%
dmCherry signal produced (IL-17RA/RC; 100/2 ng/ml, after 24 hrs (FIG. 6H)): 24.5%
dmCherry signal produced (IL-17RA/RC; 100/(2^2) ng/ml, after 24 hrs (FIG. 6G)): 21.9%
dmCherry signal produced (IL-17RA/RC; 100/(2^3) ng/ml, after 24 hrs (FIG. 6F)): 19.9%
dmCherry produced (IL-17RA/RC; 100/(2^4) ng/ml, after 24 hrs (FIG. 6E)): 17.6%
dmCherry signal produced (IL-17RA/RC; 100/(2^5) ng/ml, after 24 hrs (FIG. 6D)): 12.6%
dmCherry signal produced (IL-17RA/RC; 100/(2^6) ng/ml, after 24 hrs (FIG. 6C)): 8.69%
dmCherry signal produced (IL-17RA/RC; 100/(2′7) ng/ml, after 24 hrs (FIG. 6B)): 5.36%
EC50 (sensitivity, dose-dependent dmCherry response) (IL-17RA/RC; mIL-17A/F system, three parameter [Agonist] vs. response fit (FIG. 6J)): 3.556 ng/mL
activation of endogenous target gene (IL-6) (IL-6): upregulation of IL-6
